Reference: publication PMC5042403, “Arabidopsis CaM1 and CaM4 Promote Nitric Oxide Production and Salt Resistance by Inhibiting S-Nitrosoglutathione Reductase via Direct Binding” (PLoS Genetics, 2016)

Biological target: T1, GST-GSNOR (GST-tagged full-length GSNOR) (Arabidopsis thaliana, UniProt Q96533 1-379)
T1 construct: Arabidopsis thaliana S-nitrosoglutathione reductase (GSNOR, At5g43940), full-length cDNA; source: E. coli BL21, purified
Experiment: far-Western, overlay or dot blot; 1 μg of each purified GST fusion protein separated by 10% SDS-PAGE and transferred to a PVDF membrane; blot probed with 1 μg CaM4-His in 10 ml TBST with 0.1 mM CaCl2 (or 0.1 mM EGTA, with which the binding became weaker); detected with anti-His antibody
Details: both partners purified

T1 sequence (Q96533 whole entry): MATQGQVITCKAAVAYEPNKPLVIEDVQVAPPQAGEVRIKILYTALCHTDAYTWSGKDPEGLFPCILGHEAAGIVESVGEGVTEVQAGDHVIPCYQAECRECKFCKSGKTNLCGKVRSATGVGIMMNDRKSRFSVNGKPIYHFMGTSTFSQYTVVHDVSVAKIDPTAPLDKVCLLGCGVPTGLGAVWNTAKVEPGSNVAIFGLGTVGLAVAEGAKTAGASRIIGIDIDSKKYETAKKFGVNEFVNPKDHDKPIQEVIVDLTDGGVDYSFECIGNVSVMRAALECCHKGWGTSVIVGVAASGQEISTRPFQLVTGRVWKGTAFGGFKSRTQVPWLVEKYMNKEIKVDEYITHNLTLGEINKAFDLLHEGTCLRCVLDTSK

binding result: binds
B1: CaM4-His (natural protein)
chain: not shown
notes: Arabidopsis thaliana calmodulin 4 (AtCaM4, At1g66410); AtCaM1 and AtCaM4 encode the same protein; also called CaM-His; AtCaM4; source: E. coli BL21, purified; not shown: His6, C-terminal, kept
